Data taken from the supplement of paper PMC10567573.
± gives the standard deviation.

Assay: protein stability index of a GFP-peptide fusion (GPS, HEK-293T) (PSI 1-6); higher = more stable
Details: c terminus: a fixed tail appended
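Further: 24-mer peptide tiles fused after GFP, lentivirally expressed, FACS-sorted into six equal bins by GFP/DsRed ratio, decoded by Illumina sequencing, PSI is the read-weighted mean bin number.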

Sequence | protein stability index (treatment: DMSO) | protein stability index (treatment: MLN4924 1 uM, 8 h)
PKEEQQQALEQFAAAAAHSTPVRR [EPB41L3] | 5.37 ± 0.087 | 5.22 ± 0.33
PKKKHLDYLIQATNETNVNIPQMA [SNAP91] | 3.67 ± 0.13 | 3.43 ± 0.33
PLMGETQERERVLTHFSRRYCQCN [PSD2] | 3.13 ± 0.38 | 3.62 ± 0.25
PLSLVKRTDLKDLIIFDKQSSQRM [CEP70] | 2.97 ± 0.51 | 3.18 ± 0.44
PNIPKAKSLDGVTNDRTASQGQWG [DHCR7] | 4.65 ± 0.29 | 4.84 ± 0.29
PNIVVAIAGNKCDLIDVREVMERD [RAB22A] | 3.68 ± 0.14 | 3.68 ± 0.25
PNKGLLSDSMTDVPVDTGVAARTP [TPD52L2] | 4.9 ± 0.17 | 4.93 ± 0.16
PPLREIILGPSSAYTQTQFHNLRN [NFE2L1] | 2.47 ± 0.15 | 2.65 ± 0.4
PQKTYSVKVLAFTSIGDGPLSSDI [PTPRD] | 2.17 ± 0.29 | 1.89 ± 0.3
PQTRSGPECGLAKKPPEESTCFER [ADAMTSL2] | 5.05 ± 0.22 | 5.08 ± 0.33
PQTVGVGRARFTTYEVRMRTNLPI [SNX12] | 2.61 ± 0.22 | 2.6 ± 0.34
PRNSDMKNQGEENGFPDSTGDPLP [EDARADD] | 5.53 ± 0.26 | 5.36 ± 0.13
PRQVSYTPQHHEKQYAMQRPNDDS [IQUB] | 4.78 ± 0.22 | 4.77 ± 0.12
PRTNQWSPVVAMTSRRSGVGLAVV [KLHL20] | 2.47 ± 0.51 | 2.47 ± 0.33
PSEPSAPLPAGVPPLEDFEVLDGV [FKBP8] | 5.49 ± 0.18 | 5.53 ± 0.11
PSPMPTHRSYLGPGSTSPLETSGN [SLC6A17] | 4.13 ± 0.29 | 4.47 ± 0.26
PSRQYATLDVYNPFETREPPPAYE [SCAMP3] | 3.95 ± 0.27 | 4.14 ± 0.21
PSTVGAEAQEEFLRVLGSMCQRLR [DFFB] | 2.28 ± 0.34 | 2.2 ± 0.32
PTYGRSFTLASSSDTRVGAPATGS [CHIT1] | 4.29 ± 0.25 | 4.12 ± 0.36
PVKSYDYLLKFLLVGDSDVGKGEI [RAB40C] | 2.06 ± 0.19 | 2 ± 0.24
PVKTLPFSPSQFLNFWNKQDTLEL [MYBL2] | 2.36 ± 0.37 | 2.43 ± 0.31
PYKCPECGKSFSRSSHLVIHERTH [ZNF263] | 3.23 ± 0.54 | 3.28 ± 0.64

Sequence | protein stability index (treatment: DMSO) | protein stability index (treatment: MLN4924 1 uM, 8 h)
QAGAARLEEELRQLKEEMARHLRE [PRPH] | 4.15 ± 0.37 | 4.63 ± 0.3
QALQKEKETLAVNYEKEEEFLTNE [CCDC6] | 5.39 ± 0.15 | 5.3 ± 0.24
QAPISAPEYTYGISNIDTTIEGTS [MFF] | 4.67 ± 0.42 | 4.55 ± 0.21
QAQMIHPKPADFRNPGPGRHRLIT [INTS4] | 3.94 ± 0.26 | 3.92 ± 0.24
QASPYHPGSCGAGAPSPGSSDVST [ELF3] | 4.57 ± 0.16 | 4.52 ± 0.43
QEWSFLPSITRKRRYVASVSLHDR [KLHL12] | 2.41 ± 0.11 | 2.51 ± 0.33
QFANLVLHQTVERIHVGKKYGDIP [LSM1] | 2.13 ± 0.22 | 2.09 ± 0.23
QGHPQTGCECEDGPDGQEMDPPNP [GAGE1] | 5.39 ± 0.33 | 5.67 ± 0.14
QHYQQYMQQLYQVQLAQQQAALQK [ACBD3] | 2.23 ± 0.23 | 2.21 ± 0.23
QKEQQERLREAAALGDIREVQKLV [ANKRD40] | 4.67 ± 0.25 | 4.74 ± 0.25
QKILCSKSENARLVVQIDNAKLAA [KRT33B] | 3.21 ± 0.27 | 3.33 ± 0.26
QKKIESYLHNHFIGEGMTKYDYLM [TENT5D] | 2.13 ± 0.45 | 2.18 ± 0.27
QKRETLSPLCLIPMVTSPREEQQL [KCTD13] | 3.98 ± 0.18 | 4.08 ± 0.15
QLGLGRGASTFKEEPQTVPEARSR [JUNB] | 5.04 ± 0.1 | 5.22 ± 0.26
QLLWREFFYTAATNNPRFDKMEGN [CRY1] | 2.02 ± 0.23 | 2 ± 0.38
QLQPTFTPMRVALAGTFHYYSCER [NSDHL] | 2.18 ± 0.24 | 2.26 ± 0.044
QMNLLQKYSLLKLTALLEKYTPSN [DLC1] | 2.48 ± 0.55 | 2.41 ± 0.49
QNMMNHCNLWDSHHPEVPQRILRI [HDAC6] | 2.2 ± 0.24 | 2.15 ± 0.083
QQKLVIDTVTEVTARMEMLIEELY [CBY2] | 2.55 ± 0.26 | 2.7 ± 0.42
QRLLNTPRRKKLKSTSKYIYQTLF [GMCL1] | 2.08 ± 0.73 | 1.75 ± 0.46
QSRGVPAVSESYSAPGACEEPTER [FBXO34] | 5.49 ± 0.18 | 5.49 ± 0.18
QSSFNSLQRVPSYDSFDSEDYPAA [ETS1] | 4.92 ± 0.28 | 4.93 ± 0.21

Sequence | protein stability index (treatment: DMSO) | protein stability index (treatment: MLN4924 1 uM, 8 h)
QSSLLETLYRNRSNLETIFRIIDS [PPEF2] | 2.17 ± 0.25 | 2.15 ± 0.1
QSYKDLCERHEKGVLHKHQRALHK [SNX8] | 3.95 ± 0.2 | 3.92 ± 0.37
QTDHIKGIRQITSDDFCTFQMVLE [GFOD1] | 2.69 ± 0.28 | 2.8 ± 0.25
QTLLGTAKMLLHEGQHPAQLRSDV [PYCR3] | 3.28 ± 0.094 | 3.16 ± 0.39
QTPQVNINPFTPDSLLLHSSGQCR [WEE1] | 3.6 ± 0.24 | 3.86 ± 0.34
QTSSSTFGGGSTRGGSLLAGGGGF [KRT15] | 3.57 ± 0.17 | 3.7 ± 0.23
QVKKTTTRWCHIVRDSDSLAESEF [PHTF1] | 3.44 ± 0.36 | 3.67 ± 0.25
QVLVKDFTFEGFSRLRFLNLGRMI [ZER1] | 2.07 ± 0.22 | 2.08 ± 0.23
QYSGMLDCARRILAREGVAAFYKG [SLC25A25] | 2.38 ± 0.34 | 2.23 ± 0.055
RAKCRNMEHALREKAKAFWAMRRS [TRIM35] | 2.09 ± 0.36 | 2.3 ± 0.34
RAVRDRNLLRDDRVLQNLLTIEER [CCND2] | 3.91 ± 0.21 | 3.89 ± 0.17
RDHSVRVLISNHVTPFDHNIVNLL [AUP1] | 2.1 ± 0.16 | 2.12 ± 0.31
RDKARLLREKVEFLRSLRQMKQKV [NFE2L1] | 2.73 ± 0.15 | 3.14 ± 0.37
REIALAKKHGTQNKRAALQALKRK [CHMP4C] | 4.04 ± 0.14 | 4.29 ± 0.39
REPQEDSQKDLENDPSVNSQAQET [TOR1AIP2] | 5.68 ± 0.15 | 5.61 ± 0.2
REVSSYPSTVGAEAQEEFLRVLGS [DFFB] | 4.33 ± 0.22 | 4.23 ± 0.16
RFALIPAPELVERVQSVDFMRTDP [KLHL14] | 3.26 ± 0.17 | 3.26 ± 0.18
RFLLKETLNQLQSLQNSLECAMET [NECAB1] | 2.29 ± 0.4 | 2.31 ± 0.41
RFTAESYTVLGDTLIDGGEHYWEV [FSD1] | 2.23 ± 0.3 | 2.5 ± 0.43
RGFCAFLGSWLVPFAYLTVLDLSK [POMT2] | 3.24 ± 0.7 | 3.16 ± 0.25
RGVRRTASTPTPDDKLFQKLAKVY [CPN1] | 2.61 ± 0.29 | 2.86 ± 0.27
